Source: IntAct's records for PubMed 24114786

Legend:
[1] = biological target: flica_pseai fliC (UniProt P21184)
[2] = biological target: bak1_arath BAK1 (UniProt Q94F62)
bak1_arath BAK1, sequence (Q94F62 whole entry): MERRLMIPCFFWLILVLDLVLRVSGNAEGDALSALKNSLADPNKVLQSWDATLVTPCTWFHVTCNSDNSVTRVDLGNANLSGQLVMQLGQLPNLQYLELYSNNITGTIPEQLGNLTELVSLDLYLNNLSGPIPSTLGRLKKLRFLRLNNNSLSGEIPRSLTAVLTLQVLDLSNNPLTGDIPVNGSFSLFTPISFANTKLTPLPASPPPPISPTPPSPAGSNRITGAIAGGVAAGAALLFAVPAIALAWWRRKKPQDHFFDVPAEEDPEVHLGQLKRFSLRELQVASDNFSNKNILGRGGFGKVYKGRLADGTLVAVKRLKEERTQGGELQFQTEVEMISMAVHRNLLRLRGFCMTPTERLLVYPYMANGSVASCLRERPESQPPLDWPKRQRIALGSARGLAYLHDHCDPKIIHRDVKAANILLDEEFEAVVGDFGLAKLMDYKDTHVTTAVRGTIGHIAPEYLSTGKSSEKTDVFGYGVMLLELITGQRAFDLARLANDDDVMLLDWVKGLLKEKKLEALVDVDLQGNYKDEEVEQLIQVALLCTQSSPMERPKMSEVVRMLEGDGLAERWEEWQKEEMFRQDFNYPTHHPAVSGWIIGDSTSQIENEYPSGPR

flica_pseai fliC, sequence (P21184 whole entry): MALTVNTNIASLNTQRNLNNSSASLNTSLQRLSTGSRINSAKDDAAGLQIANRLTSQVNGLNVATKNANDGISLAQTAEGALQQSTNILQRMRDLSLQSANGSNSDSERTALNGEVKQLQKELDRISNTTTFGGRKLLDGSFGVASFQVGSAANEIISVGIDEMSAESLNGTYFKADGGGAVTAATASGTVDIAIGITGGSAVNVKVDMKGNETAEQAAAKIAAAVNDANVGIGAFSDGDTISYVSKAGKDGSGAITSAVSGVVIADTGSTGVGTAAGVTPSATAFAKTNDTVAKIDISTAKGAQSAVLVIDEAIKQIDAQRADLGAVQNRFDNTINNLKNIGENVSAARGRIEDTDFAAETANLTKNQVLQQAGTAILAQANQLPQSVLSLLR
LRR receptor-like serine/threonine-protein kinase FLS2 (Arabidopsis thaliana (Mouse-ear cress)), Q9FL28 R294A;H316A, sequence (Q9FL28 whole entry R294A/H316A): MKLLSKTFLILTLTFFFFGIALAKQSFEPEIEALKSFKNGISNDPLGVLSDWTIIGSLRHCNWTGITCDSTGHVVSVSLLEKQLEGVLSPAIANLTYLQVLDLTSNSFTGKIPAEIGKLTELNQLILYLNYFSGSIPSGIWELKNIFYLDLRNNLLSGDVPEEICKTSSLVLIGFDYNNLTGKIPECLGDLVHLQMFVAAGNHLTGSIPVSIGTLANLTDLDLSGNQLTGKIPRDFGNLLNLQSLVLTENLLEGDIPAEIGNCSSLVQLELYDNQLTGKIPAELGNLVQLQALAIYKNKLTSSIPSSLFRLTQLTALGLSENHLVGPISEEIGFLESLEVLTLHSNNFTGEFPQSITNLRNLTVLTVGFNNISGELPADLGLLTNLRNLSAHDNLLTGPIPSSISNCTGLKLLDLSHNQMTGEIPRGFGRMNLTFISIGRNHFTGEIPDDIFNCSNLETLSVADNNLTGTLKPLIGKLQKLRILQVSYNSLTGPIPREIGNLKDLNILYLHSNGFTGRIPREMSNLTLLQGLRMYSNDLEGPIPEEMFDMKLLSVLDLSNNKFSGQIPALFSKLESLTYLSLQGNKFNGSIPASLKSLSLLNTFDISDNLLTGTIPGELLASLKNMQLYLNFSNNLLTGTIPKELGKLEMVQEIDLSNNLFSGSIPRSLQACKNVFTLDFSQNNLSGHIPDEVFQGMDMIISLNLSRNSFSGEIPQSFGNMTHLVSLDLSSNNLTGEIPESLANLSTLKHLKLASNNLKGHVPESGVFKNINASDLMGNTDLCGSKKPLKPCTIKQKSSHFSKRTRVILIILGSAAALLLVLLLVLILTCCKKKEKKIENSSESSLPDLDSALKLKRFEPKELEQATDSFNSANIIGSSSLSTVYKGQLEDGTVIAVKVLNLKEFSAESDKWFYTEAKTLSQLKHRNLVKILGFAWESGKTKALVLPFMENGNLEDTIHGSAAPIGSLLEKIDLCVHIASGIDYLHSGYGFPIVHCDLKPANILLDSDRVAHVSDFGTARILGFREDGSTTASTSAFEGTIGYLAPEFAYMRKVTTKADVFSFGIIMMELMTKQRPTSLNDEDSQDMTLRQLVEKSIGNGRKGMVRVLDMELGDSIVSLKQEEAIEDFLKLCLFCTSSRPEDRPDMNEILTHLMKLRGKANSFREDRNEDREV
LRR receptor-like serine/threonine-protein kinase FLS2 (Arabidopsis thaliana (Mouse-ear cress)), Q9FL28 S437Y, sequence (Q9FL28 whole entry S437Y): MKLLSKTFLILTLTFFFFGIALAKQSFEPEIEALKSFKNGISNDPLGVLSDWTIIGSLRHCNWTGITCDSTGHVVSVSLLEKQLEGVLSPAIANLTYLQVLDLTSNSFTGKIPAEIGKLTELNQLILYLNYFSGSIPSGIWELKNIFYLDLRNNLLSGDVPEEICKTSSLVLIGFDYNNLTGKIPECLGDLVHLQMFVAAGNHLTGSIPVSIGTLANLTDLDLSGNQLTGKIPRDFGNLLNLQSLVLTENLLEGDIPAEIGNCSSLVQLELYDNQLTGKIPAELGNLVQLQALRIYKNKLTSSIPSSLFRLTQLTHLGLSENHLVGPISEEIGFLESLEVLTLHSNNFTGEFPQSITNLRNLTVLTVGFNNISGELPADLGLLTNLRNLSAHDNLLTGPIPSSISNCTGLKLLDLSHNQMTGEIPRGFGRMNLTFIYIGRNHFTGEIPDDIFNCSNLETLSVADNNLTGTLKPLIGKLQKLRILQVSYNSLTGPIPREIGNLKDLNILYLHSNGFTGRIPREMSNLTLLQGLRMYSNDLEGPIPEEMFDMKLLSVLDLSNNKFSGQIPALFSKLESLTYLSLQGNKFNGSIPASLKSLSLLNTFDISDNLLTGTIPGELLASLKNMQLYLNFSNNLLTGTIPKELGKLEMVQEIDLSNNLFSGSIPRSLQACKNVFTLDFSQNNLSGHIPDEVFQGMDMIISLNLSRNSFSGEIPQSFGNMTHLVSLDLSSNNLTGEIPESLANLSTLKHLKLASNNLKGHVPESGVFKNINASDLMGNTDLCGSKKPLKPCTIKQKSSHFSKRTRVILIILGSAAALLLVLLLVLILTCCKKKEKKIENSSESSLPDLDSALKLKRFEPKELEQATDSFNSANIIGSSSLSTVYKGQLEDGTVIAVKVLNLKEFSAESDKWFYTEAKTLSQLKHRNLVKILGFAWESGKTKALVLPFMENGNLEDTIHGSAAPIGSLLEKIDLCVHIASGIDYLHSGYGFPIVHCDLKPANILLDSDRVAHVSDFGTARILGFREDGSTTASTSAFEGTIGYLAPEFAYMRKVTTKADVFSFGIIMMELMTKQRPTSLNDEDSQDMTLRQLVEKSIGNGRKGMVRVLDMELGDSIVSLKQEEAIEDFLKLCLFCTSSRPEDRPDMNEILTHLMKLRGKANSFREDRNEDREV
LRR receptor-like serine/threonine-protein kinase FLS2 (Arabidopsis thaliana (Mouse-ear cress)), Q9FL28 D414A, sequence (Q9FL28 whole entry D414A): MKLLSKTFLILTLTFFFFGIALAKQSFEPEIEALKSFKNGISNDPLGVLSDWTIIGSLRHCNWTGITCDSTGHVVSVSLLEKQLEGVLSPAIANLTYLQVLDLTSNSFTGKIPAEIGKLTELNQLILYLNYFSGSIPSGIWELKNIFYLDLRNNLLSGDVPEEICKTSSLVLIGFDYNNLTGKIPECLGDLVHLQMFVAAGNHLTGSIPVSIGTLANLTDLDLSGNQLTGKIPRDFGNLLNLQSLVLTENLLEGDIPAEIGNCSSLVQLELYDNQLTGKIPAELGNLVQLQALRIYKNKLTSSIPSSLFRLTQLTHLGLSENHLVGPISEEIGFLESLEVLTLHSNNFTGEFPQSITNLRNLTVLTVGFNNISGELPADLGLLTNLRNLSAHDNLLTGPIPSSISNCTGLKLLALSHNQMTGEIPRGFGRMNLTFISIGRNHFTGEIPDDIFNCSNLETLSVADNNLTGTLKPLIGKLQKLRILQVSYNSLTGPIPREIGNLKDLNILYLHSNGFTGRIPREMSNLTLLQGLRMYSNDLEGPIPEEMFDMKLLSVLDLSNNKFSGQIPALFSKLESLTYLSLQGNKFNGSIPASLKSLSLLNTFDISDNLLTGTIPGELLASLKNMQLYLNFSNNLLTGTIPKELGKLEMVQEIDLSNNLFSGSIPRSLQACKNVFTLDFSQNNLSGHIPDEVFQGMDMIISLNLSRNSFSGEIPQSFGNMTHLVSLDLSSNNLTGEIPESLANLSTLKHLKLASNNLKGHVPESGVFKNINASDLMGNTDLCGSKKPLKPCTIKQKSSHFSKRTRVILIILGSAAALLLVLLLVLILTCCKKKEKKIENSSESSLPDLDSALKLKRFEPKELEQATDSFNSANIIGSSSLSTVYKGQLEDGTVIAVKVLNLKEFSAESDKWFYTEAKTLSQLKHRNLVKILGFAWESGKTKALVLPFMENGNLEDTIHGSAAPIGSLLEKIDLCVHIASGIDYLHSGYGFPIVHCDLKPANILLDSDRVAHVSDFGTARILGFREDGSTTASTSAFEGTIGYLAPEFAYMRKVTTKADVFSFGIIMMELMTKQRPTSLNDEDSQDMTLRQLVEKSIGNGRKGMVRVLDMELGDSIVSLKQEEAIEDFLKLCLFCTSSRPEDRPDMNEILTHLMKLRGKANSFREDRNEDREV

Row | Substance | effect of a mutation on the interaction [1] | effect of a mutation on the interaction [2]
1 | LRR receptor-like serine/threonine-protein kinase FLS2 (Arabidopsis thaliana (Mouse-ear cress)), Q9FL28 D414A | decreasing interaction strength | decreasing interaction strength
2 | LRR receptor-like serine/threonine-protein kinase FLS2 (Arabidopsis thaliana (Mouse-ear cress)), Q9FL28 R294A;H316A | disrupting interaction strength | disrupting interaction strength
3 | LRR receptor-like serine/threonine-protein kinase FLS2 (Arabidopsis thaliana (Mouse-ear cress)), Q9FL28 S437Y | decreasing interaction strength | decreasing interaction strength
4 | LRR receptor-like serine/threonine-protein kinase FLS2 (Arabidopsis thaliana (Mouse-ear cress)), Q9FL28 T342Y | disrupting interaction strength | disrupting interaction strength
